From the supplement of paper PMC9876800

Test system: peptide library, one residue held at a place counted from the S/T acceptor
Assay: relative phosphorylation of the sub-library (ratio to the mean residue at this position); higher = residue favoured
Conditions: human
In short: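 Relative sub-library phosphorylation is the ratio of each sub-library's signal to the mean residue at that position. The signal came from phosphorimaging of spots on streptavidin membranes, quantified by densitometry, after purified recombinant kinases reacted with biotinylated degenerate peptide sub-libraries in 384-well plates. Reactions held 50 μM peptide and 50 μM ATP spiked with γ-32P-ATP for 90 min under kinase-specific conditions.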

Sequence of MAP3K19, construct: aa941-end (Q56UN5 941-1328, looked up): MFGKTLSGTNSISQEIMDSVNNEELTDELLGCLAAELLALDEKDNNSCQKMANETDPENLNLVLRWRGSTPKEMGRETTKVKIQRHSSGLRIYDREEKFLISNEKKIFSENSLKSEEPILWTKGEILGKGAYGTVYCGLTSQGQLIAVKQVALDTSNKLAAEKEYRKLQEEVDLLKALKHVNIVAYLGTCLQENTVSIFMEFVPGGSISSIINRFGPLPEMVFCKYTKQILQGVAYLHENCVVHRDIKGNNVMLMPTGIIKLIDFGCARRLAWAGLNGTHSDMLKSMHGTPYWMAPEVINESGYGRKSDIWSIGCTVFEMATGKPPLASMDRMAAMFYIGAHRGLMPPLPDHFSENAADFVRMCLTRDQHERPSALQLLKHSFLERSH
Sequence of MYLK3, construct: aa490-end (Q32MK0 490-819, looked up): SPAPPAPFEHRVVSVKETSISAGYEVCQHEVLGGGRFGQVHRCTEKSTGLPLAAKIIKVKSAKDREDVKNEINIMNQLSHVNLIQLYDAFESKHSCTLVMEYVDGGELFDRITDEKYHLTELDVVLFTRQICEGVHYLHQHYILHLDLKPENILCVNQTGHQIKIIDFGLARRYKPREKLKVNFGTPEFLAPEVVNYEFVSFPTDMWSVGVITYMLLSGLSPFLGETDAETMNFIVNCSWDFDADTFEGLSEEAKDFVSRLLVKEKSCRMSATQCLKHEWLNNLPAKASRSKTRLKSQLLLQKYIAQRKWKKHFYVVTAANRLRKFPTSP
Sequence of CDK6, construct: Full length (Q00534 whole entry, looked up): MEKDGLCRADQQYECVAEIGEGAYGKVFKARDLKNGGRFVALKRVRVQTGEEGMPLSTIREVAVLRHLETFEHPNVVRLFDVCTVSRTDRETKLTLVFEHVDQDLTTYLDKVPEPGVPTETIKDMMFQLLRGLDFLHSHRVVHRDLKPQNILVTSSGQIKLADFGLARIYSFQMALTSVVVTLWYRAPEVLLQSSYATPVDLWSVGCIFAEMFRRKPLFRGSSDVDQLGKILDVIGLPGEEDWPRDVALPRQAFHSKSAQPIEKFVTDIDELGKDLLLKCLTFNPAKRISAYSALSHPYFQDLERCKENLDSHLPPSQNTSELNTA

MAP3K19, construct: aa941-end (from UniProt Q56UN5)
relative phosphorylation
Conditions | at +1 | at +2 | at +3 | at +4 | at -1 | at -2 | at -3 | at -4 | at -5
A fixed | 0.458 | 0.666 | 0.903 | 0.975 | 0.853 | 1.02 | 0.971 | 1.05 | 1.27
D fixed | 0.354 | 0.662 | 0.8 | 0.995 | 1.51 | 1.22 | 1.46 | 1.14 | 1.18
E fixed | 0.386 | 0.508 | 0.765 | 0.822 | 0.913 | 0.851 | 1.03 | 1.1 | 0.864
F fixed | 1.33 | 0.605 | 0.974 | 0.784 | 0.832 | 1.67 | 0.921 | 1.04 | 1.08
G fixed | 0.531 | 0.809 | 1.15 | 1.23 | 0.867 | 0.977 | 1.16 | 1.16 | 1.24
H fixed | 0.999 | 1.35 | 1.1 | 1.12 | 1.25 | 1.34 | 1.08 | 1.06 | 1.13
I fixed | 1.7 | 0.677 | 0.741 | 0.801 | 0.586 | 0.558 | 0.65 | 0.701 | 0.679
K fixed | 0.396 | 2.23 | 1.32 | 1.38 | 1 | 0.363 | 0.877 | 0.834 | 0.892
L fixed | 2.2 | 0.55 | 0.818 | 0.817 | 1.13 | 0.506 | 0.725 | 0.883 | 0.736
M fixed | 1.56 | 0.625 | 0.803 | 0.863 | 1.03 | 0.821 | 0.95 | 0.969 | 0.87
N fixed | 0.52 | 1.43 | 1.22 | 1.05 | 1.25 | 1.08 | 1.39 | 1.1 | 1.05
P fixed | 0.202 | 0.646 | 1.27 | 1.34 | 1.08 | 0.687 | 0.953 | 1.06 | 1.01
Q fixed | 0.485 | 0.932 | 0.986 | 1.26 | 0.941 | 0.856 | 1.04 | 0.936 | 0.818
R fixed | 0.433 | 3 | 1.18 | 1.05 | 0.914 | 0.484 | 0.923 | 0.888 | 1.02
V fixed | 1.17 | 0.883 | 0.919 | 0.756 | 0.615 | 0.599 | 0.606 | 0.81 | 0.879
W fixed | 2.7 | 0.673 | 1.06 | 0.916 | 0.841 | 1.79 | 1.21 | 1.21 | 1.28
Y fixed | 1.57 | 0.755 | 0.982 | 0.838 | 1.38 | 2.18 | 1.05 | 1.05 | 1.02
pThr fixed | 0.786 | 1.14 | 1.09 | 1.08 | 0.755 | 0.741 | 1.09 | 1.13 | 1.19
pTyr fixed | 0.541 | 0.47 | 0.675 | 0.662 | 1.35 | 0.832 | 1.09 | 0.908 | 0.807

MYLK3, construct: aa490-end (from UniProt Q32MK0)
relative phosphorylation
Conditions | at +1 | at +2 | at +3 | at +4 | at -1 | at -2 | at -3 | at -4 | at -5
A fixed | 0.997 | 0.992 | 0.828 | 1 | 0.944 | 0.927 | 0.967 | 1.04 | 0.985
D fixed | 0.753 | 0.819 | 0.786 | 0.983 | 0.851 | 0.585 | 0.67 | 0.758 | 0.72
E fixed | 0.833 | 0.958 | 0.758 | 1.01 | 0.799 | 0.585 | 0.667 | 0.836 | 0.722
F fixed | 0.951 | 1.06 | 1.43 | 1.02 | 0.964 | 0.641 | 0.71 | 0.904 | 0.919
G fixed | 0.937 | 0.89 | 0.861 | 1.04 | 0.913 | 0.788 | 0.879 | 1.01 | 0.982
H fixed | 0.922 | 0.995 | 0.943 | 1.07 | 1.03 | 1.09 | 0.884 | 0.976 | 0.987
I fixed | 1.1 | 1.19 | 0.997 | 1.03 | 0.971 | 0.656 | 0.748 | 0.936 | 1.09
K fixed | 1.25 | 0.972 | 0.81 | 0.941 | 1.09 | 1.44 | 1.41 | 1.42 | 1.29
L fixed | 0.938 | 1 | 1.2 | 1.04 | 1.24 | 0.653 | 0.711 | 0.918 | 0.983
M fixed | 1.18 | 1.02 | 0.953 | 0.932 | 1.2 | 0.711 | 0.756 | 0.991 | 1.04
N fixed | 0.961 | 0.863 | 0.839 | 0.93 | 1.07 | 0.737 | 0.717 | 0.867 | 0.813
P fixed | 0.786 | 0.899 | 0.876 | 1.18 | 0.956 | 0.778 | 0.933 | 1.01 | 1.11
Q fixed | 1.1 | 0.887 | 0.786 | 0.937 | 0.949 | 0.762 | 0.77 | 0.902 | 0.85
R fixed | 1.43 | 1.07 | 0.821 | 1 | 1.17 | 4.7 | 3.93 | 1.62 | 1.68
V fixed | 1.12 | 1.19 | 0.889 | 0.943 | 0.972 | 0.668 | 0.773 | 1.01 | 1.01
W fixed | 0.839 | 0.997 | 2.22 | 1.05 | 0.862 | 0.63 | 0.735 | 0.858 | 0.813
Y fixed | 0.908 | 1.19 | 1 | 0.902 | 1.02 | 0.647 | 0.729 | 0.938 | 1
pThr fixed | 1.12 | 1.06 | 0.774 | 1.08 | 0.769 | 0.637 | 0.724 | 0.809 | 0.728
pTyr fixed | 0.83 | 1.06 | 0.883 | 1.02 | 0.882 | 0.644 | 0.994 | 0.844 | 0.798

CDK6, construct: Full length (from UniProt Q00534)
relative phosphorylation
Conditions | at +1 | at +2 | at +3 | at +4 | at -1 | at -2 | at -3 | at -4 | at -5
A fixed | 0.249 | 0.659 | 0.594 | 0.709 | 0.827 | 0.895 | 1.21 | 1.02 | 1.04
D fixed | 0.113 | 0.259 | 0.209 | 0.504 | 0.48 | 0.316 | 0.476 | 0.884 | 0.866
E fixed | 0.11 | 0.238 | 0.174 | 0.424 | 0.473 | 0.406 | 0.66 | 0.859 | 0.909
F fixed | 0.353 | 0.811 | 0.529 | 0.795 | 0.908 | 1.1 | 0.978 | 0.852 | 0.979
G fixed | 1.39 | 0.731 | 0.681 | 1.15 | 1.29 | 0.73 | 1.42 | 1.04 | 1.23
H fixed | 0.295 | 1.24 | 1.06 | 1.23 | 1.11 | 1.16 | 1.2 | 1.11 | 1.18
I fixed | 0.308 | 1.04 | 0.461 | 0.746 | 0.493 | 0.878 | 0.932 | 0.757 | 0.669
K fixed | 0.303 | 1.83 | 3.16 | 1.64 | 1.23 | 0.788 | 1.03 | 1.35 | 1.57
L fixed | 0.344 | 1.1 | 0.458 | 0.785 | 1.14 | 1.29 | 1.08 | 0.85 | 0.773
M fixed | 0.328 | 1.01 | 0.581 | 0.891 | 1.28 | 1.5 | 1.03 | 0.867 | 0.736
N fixed | 0.211 | 0.885 | 0.747 | 0.957 | 0.746 | 0.783 | 0.827 | 1.19 | 1.04
P fixed | 11.6 | 0.494 | 0.862 | 1.01 | 1.26 | 2.2 | 1.15 | 1.07 | 1.24
Q fixed | 0.258 | 0.905 | 0.702 | 1.03 | 1.04 | 0.894 | 0.865 | 1.05 | 0.99
R fixed | 0.31 | 3.29 | 5 | 2.44 | 1.78 | 0.969 | 1.33 | 1.15 | 1.31
V fixed | 0.315 | 0.956 | 0.513 | 0.724 | 0.64 | 0.835 | 0.886 | 0.673 | 0.68
W fixed | 0.285 | 0.665 | 0.58 | 1.13 | 1.08 | 1.06 | 0.92 | 1.25 | 0.721
Y fixed | 0.24 | 0.887 | 0.688 | 0.829 | 1.23 | 1.19 | 1.02 | 1.05 | 1.06
pThr fixed | 0.326 | 0.502 | 0.433 | 0.336 | 0.25 | 0.548 | 0.725 | 0.882 | 0.934
pTyr fixed | 0.339 | 0.36 | 0.486 | 0.349 | 0.324 | 0.798 | 0.81 | 1.12 | 1.34

DYRK2, construct: Full length (from UniProt Q92630)
relative phosphorylation
Conditions | at +1 | at +2 | at +3 | at +4 | at -1 | at -2 | at -3 | at -4 | at -5
A fixed | 0.832 | 1.06 | 0.927 | 0.956 | 1.27 | 2.04 | 0.9 | 0.971 | 1.08
D fixed | 0.164 | 1.08 | 0.82 | 1.14 | 0.655 | 0.308 | 0.592 | 0.84 | 0.894
E fixed | 0.214 | 0.977 | 0.792 | 0.8 | 0.788 | 0.307 | 0.529 | 0.922 | 0.857
F fixed | 0.209 | 0.977 | 0.929 | 1.23 | 0.7 | 0.518 | 0.457 | 0.843 | 1.03
G fixed | 0.62 | 0.756 | 1.59 | 1.17 | 1.17 | 0.984 | 1.78 | 1.05 | 1.16
H fixed | 0.227 | 0.923 | 0.915 | 0.967 | 0.948 | 0.562 | 0.796 | 0.894 | 1.14
I fixed | 0.368 | 1.26 | 0.8 | 0.996 | 0.702 | 0.897 | 0.571 | 0.843 | 0.833
K fixed | 0.357 | 0.502 | 0.548 | 0.832 | 1.12 | 0.495 | 0.756 | 0.859 | 0.859
L fixed | 0.307 | 1.45 | 1.1 | 0.987 | 0.823 | 0.98 | 0.635 | 0.861 | 0.878
M fixed | 0.314 | 1.48 | 1.05 | 1.22 | 1.16 | 0.915 | 0.608 | 0.969 | 0.843
N fixed | 0.304 | 1.08 | 0.838 | 0.928 | 0.877 | 0.781 | 0.691 | 0.771 | 0.846
P fixed | 9.47 | 0.703 | 2.79 | 1.16 | 1.68 | 2.97 | 0.988 | 1.26 | 0.99
Q fixed | 0.466 | 1.1 | 0.893 | 0.992 | 1.05 | 0.597 | 0.735 | 0.826 | 0.819
R fixed | 1.99 | 0.629 | 0.707 | 0.778 | 1.5 | 2.44 | 5.23 | 2.46 | 1.69
V fixed | 0.772 | 1.23 | 0.682 | 0.918 | 0.898 | 1.28 | 0.573 | 0.781 | 0.833
W fixed | 0.193 | 0.958 | 0.902 | 0.984 | 0.627 | 0.487 | 0.571 | 0.997 | 1.01
Y fixed | 0.195 | 0.829 | 0.72 | 0.932 | 1.04 | 0.444 | 0.588 | 0.853 | 1.24
pThr fixed | 0.399 | 1.77 | 0.745 | 1.28 | 0.415 | 0.56 | 0.647 | 1.03 | 1.03
pTyr fixed | 0.476 | 0.786 | 0.709 | 0.928 | 0.953 | 0.452 | 0.79 | 1.19 | 1.19
